Data reported in the supplement of paper PMC11865577.

How the values were obtained:
Test in all cases: pull-down binding Z-score (relative to library population); higher = stronger binding
Conditions in all cases: RNA library: Library-2
[1] = test system: TO-3-N3 (biotin conjugate)
Procedure, shortened: (§1)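 Streptavidin beads with 100 pmol of biotin-conjugated small molecule were incubated for 60 min at 25 °C with 1 μg of heat-folded Cy5- or Cy3-end-labelled RNA library in phosphate/NaCl/KCl buffer. Bound RNA was eluted in hot SDS after three washes and hybridised to a DNA barcode microarray at 55.5 °C for 20 h. Each binding score is a library-referenced Z-score, computed after beads-only subtraction and a trimmed mean of barcoded replicate probes.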

TO-N3 (biotin conjugate) = test system: TO-N3 (biotin conjugate)
Procedure, shortened: as §1

[2] = test system: TO-N3-2 (biotin conjugate)
Procedure, shortened: as §1

[3] = test system: TO-3-N3-2 (biotin conjugate)
Procedure, shortened: as §1

Row | Sequence | pull-down binding Z-score [1] | pull-down binding Z-score (TO-N3 (biotin conjugate)) | pull-down binding Z-score [2] | pull-down binding Z-score [3]
1 | GGUUGUAUGGUACAAGUAACUUGUGGUACAACU | -0.51 | -0.61 | -0.264 | -0.128
2 | ACGUACUGCCACUAAAGCAUACAAUGUAACACAAGCUUUCGGCAGACGU | 0.386 | 0.464 | 0.871 | 0.565
3 | CCACGCACAUUGCUAACUAAGGGCACACUAGAACCAGAAUAUUUCAAUUCAGUGUGUAGACUUAUGAAAACUAUAGGUCCAGACAUGUUCCUCGGAACUUGUCGG | -0.478 | -0.189 | 0.139 | -0.0669
4 | AUGCUUGGAACAGGAAGAGAAUCAGCAACUGUGUUGCUGAUUAUUCUGUCCUAUAUAAUUCCGCAU [DMSMaPseq_invitro_SARS-CoV-2_Motif_399] | -0.314 | -0.459 | -0.139 | -0.327
5 | CAAAUGUGCCUUUCAACUCUCAUGAAGUGUGAUCAUUGUGGUGAAACUUCAUGGCAGACGGGCGAUUUUG | -0.685 | -0.576 | 0.555 | -0.412
6 | AGUUCAAGAACUUUACUCUCCAAUUUUUCUUAUUGUUGCGGCAAUAGUGUUUAUAACACUUUGCUUCACACUCAAAAGAAAGACAGAAUGAUUGAACU | -0.889 | -1.27 | -1.13 | -0.46
7 | UGUGUCAAUAUUUAAACACA | 0.372 | 0.135 | -0.99 | -0.00504
8 | GUUGCUGUACCUACAGGUUAUGUUGAUACACCUAAUAAUACAGAUUUUUCCAGAGUUAGUGCUAAACCACCGCCUGGAGAUCAAU [SHAPE_invitro_SARS-CoV-2_Multi_51_ComplexLevel_1] | 0.475 | 0.691 | 0.329 | -0.139
9 | AUGCUGUUACAGCGU | -0.973 | -1.35 | -1.07 | -0.512
10 | AACAGGAGUCACCUUUUGUU | -0.0743 | -0.267 | -0.716 | -0.0265
11 | GUAUCUGAAUUAC | 0.0447 | -0.136 | -0.281 | -0.196
12 | GGAUGGUUACAGGACUAAGGAACAAUCCGUCC [IAV_invivo_HA_4_Motif_14+IAV_invivo_HA_4_Motif_14] | -0.461 | -0.295 | -0.0521 | -0.14
13 | GCGCCGCCAGAAACUGGCAGCGC [mismatch-CA] | 0.381 | 0.225 | -1.05 | -0.524
14 | GUUGUCUUGAAAACUGGUGAUUUACAACCAUUAGAACAACCUACUAGUGAAGCUGUUGAAGCUCCAUUGGUUGGUACACCAGUUUGUAUUAAC | -0.52 | -0.376 | -0.384 | -0.367
15 | GGGUUGGGUUGGGUUGGGUUGGGUUGGGUUGGGUUGGGUU [G4_r(GGGUU)8] | 8.9 | 7.46 | 5.93 | 10.2
16 | GGGAGCAAACCC [IAV_invivo_PB1_2_Motif_31+IAV_invivo_PB1_2_Motif_31] | -0.179 | -0.425 | 0.11 | -0.259
17 | UACAUGUGUUGGUAGCGAUAAUGUUACUGACUUUAAUGCAAUUGCAACAUGUG [DMSMaPseq_invitro_SARS-CoV-2_Multi_49_ComplexLevel_1] | -0.662 | -0.826 | -0.909 | 0.0202

Row | Sequence | pull-down binding Z-score [1] | pull-down binding Z-score (TO-N3 (biotin conjugate)) | pull-down binding Z-score [2] | pull-down binding Z-score [3]
18 | UACUAAUAUGUUUACACCACUAAUUCAACCUAUUGGUGCUUUGGACAUAUCAGCAUCUAUAGUAGCUGGUGGUAUUGUAGCUAUCGUAGUA [SHAPE_invivo_SARS-CoV-2_Motif_188] | 0.0327 | 0.303 | 0.354 | 0.253
19 | GUGCGGCACAGGCACUAGUACUGAUGUCGUAU [SHAPE_invitro_SARS-CoV-2_Motif_246] | 0.297 | 0.568 | 0.326 | 0.0228
20 | UCUUUCAUGGGA [DMSMaPseq_invitro_SARS-CoV-2_Motif_300] | 0.66 | 0.363 | -0.26 | 0.0379
21 | GCGCUGCCAGAAACUGGCUUCAGCGC [bulge-UUC] | -0.611 | -0.796 | -0.304 | -0.243
22 | CAGGUAUGAAUGAUACUUACCUG [U1snRNP5ss-11] | 1.06 | 0.898 | 0.225 | 0.369
23 | CAGGCAAUAACAGUUACACCGGAAGCCAAUAUGGAUCAAGAAUCCUUUGGUGGUGCAUCGUGUUGUCUG [SHAPE_invivo_SARS-CoV-2_Motif_250] | 0.944 | 1.2 | 0.779 | 0.619
24 | AUACCACUUAUGUACAAAGGACUUCCUUGGAAUGUAGUGCGUAU | -0.527 | -0.207 | 0.76 | -0.319
25 | ACAUUAGAUAAUCAAGAUCUCAAUGGUAACUGGUAUGAUUUCGGUGAUUUCAUACAAACCACGCCAGGUAGUGGAGUUCCUGUUGUAGAUUCUUAUUAUUCAUUGU | -0.0358 | 0.235 | 0.46 | 0.102
26 | CACUUAUCUUAGCCUACUGUAAUAAGACAGUAGGUGAGUUAGGUG | -0.861 | -1.2 | -1.07 | -0.273
27 | GUCUCUGAAGAAGUAGUGGAAAAUCCUACCAUACAGAAAGAC | -0.0809 | 0.289 | 0.831 | 0.0814
28 | UGUGUACACACA [SHAPE_invivo_SARS-CoV-2_Motif_249] | 0.252 | 0.0581 | -0.584 | -0.496
29 | GCGCUGCCAGAAACUGGCUGAGCGC [bulge-UG] | 0.553 | 0.392 | -0.14 | -0.0129
30 | GCGCUGCCAGAAACUGGCAAAAGCGC [bulge-AAA] | -0.765 | -0.936 | -0.689 | -0.295
31 | GGUCUGCAGGACU [IAV_invivo_PA_3_Motif_27+IAV_invivo_PA_3_Motif_27] | 0.0311 | -0.125 | -0.231 | -0.237
32 | GGAAGAGACAGGUACGUUAAUAGUUAAUAGCGUACUUCUUUUUC | -0.226 | -0.585 | -0.494 | -0.193
33 | AAGAAGCUGCGCUGUGCACCUUUUU [DMSMaPseq_invitro_SARS-CoV-2_Motif_178] | -0.433 | -0.0759 | 0.126 | -0.354
34 | ACCUUUAGUACCUUUCUGGAUAACAAUUGCUUAUAUCAUUUGUAUUUCCACAAAGCAUUUCUAUUGGU | 0.707 | 0.513 | -0.25 | -0.225
